Experiments:
[1] = molecular target: full-length human CDK9 (residues 1–372) (human) (UniProt P50750)
[2] = molecular target: full-length human CDK9 (residues 1–372) (human) (UniProt P50750); remark: listed apart in the source
[3] = molecular target: truncated CDK9 construct CDK9_(330) (residues 1–330) (human) (UniProt P50750)
Sequence of truncated CDK9 construct CDK9_(330) (residues 1–330) (human) (P50750 1-330): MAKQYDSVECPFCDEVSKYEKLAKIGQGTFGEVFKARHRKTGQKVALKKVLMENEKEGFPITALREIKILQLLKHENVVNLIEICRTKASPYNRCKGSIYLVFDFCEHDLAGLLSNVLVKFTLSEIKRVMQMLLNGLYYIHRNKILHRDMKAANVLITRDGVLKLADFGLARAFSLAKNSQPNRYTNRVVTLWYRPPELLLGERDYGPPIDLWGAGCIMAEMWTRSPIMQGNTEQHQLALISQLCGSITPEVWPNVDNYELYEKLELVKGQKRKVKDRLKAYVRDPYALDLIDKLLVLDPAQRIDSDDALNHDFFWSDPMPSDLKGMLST

Sequence of full-length human CDK9 (residues 1–372) (human) (P50750 whole entry, the tested form may be a part): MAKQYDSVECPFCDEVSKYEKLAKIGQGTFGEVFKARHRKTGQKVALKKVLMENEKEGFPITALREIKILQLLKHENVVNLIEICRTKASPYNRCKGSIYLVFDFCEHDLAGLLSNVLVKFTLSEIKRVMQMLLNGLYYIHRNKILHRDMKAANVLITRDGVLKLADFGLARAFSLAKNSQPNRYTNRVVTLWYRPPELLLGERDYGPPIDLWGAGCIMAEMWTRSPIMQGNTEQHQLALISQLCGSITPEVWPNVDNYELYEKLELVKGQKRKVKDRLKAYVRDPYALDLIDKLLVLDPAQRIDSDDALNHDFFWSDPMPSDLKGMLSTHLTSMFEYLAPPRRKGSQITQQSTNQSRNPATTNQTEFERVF

K (M, CTD): overall Michaelis constant for GST-CTD of CDK9FL/cyclin T, from initial rates with both GST-CTD and ATP varied [1]: 115 µM | K (M,app) for GST-CTD of the kinase activity of CDK9FL/cyclin T (32P incorporation into GST-CTD, fixed ATP) [2]: 24.3 µM | K (M,app) for GST-CTD of the kinase activity of CDK9 (330)/cyclin T (32P incorporation into GST-CTD, fixed ATP) [3]: 21.3 µM
Substance: GST-tagged version of the human Pol II CTD (from UniProt P24928 1587-1970) (domain or fragment)
